Laboratory results as given in the supplement of paper PMC12783771.
± gives the standard deviation of the averaged measurements.

B1: library; a variant is named by its letters at X, in order (parent)
chain: MNIQIGELAKRTACPVVTIRFYEQEGLLPPPGRSRGNFRLYGEEHVERLQFIRHCRSLDMPLSXVRTLLSYRKRPDQDCGEVXMLLDEHIRQVESRIGALLELXHHXVELREACSGARPAQSCGILQXLSXCVCXTRGTTAHXSD

Variants of: B1
Experiment: sfGFP reporter fluorescence (15 h) (µM FITC); higher = higher leak
Settings: library round: Round 3; ligand: none
Method: (§1)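 Cell-free biosensing: 1 µL Echo-assembled CFE reactions with linear PbrR variant templates (5 nM) and pPbrR-sfGFP reporter, with 1 µM Pb, 30 µM Zn or no ligand; endpoint sfGFP fluorescence after 15 h at 30 °C calibrated as µM FITC. Round 3 ML-predicted PbrR mutants; up to 3 biological replicates.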

Q: For DTKLGCDL Q121A, which sfGFP reporter fluorescence is on record?
A: Its sfGFP reporter fluorescence is 0.0413 ± 0.00047.

Q: Which sfGFP reporter fluorescence does the source give for KFVLGDDT H106A here?
A: The sfGFP reporter fluorescence was 0.0446 ± 0.0026.

Q: Which sfGFP reporter fluorescence does the source give for LILCGAAC V16C H54C C55P H106A here?
A: Its sfGFP reporter fluorescence is 0.0452 ± 0.0039.

Q: Which sfGFP reporter fluorescence does the source give for KNKCGADP M60L P61N here?
A: The sfGFP reporter fluorescence was 2.59 ± 0.17.

Q: With DTKLGSDP V108L H142A as the variant, how does the sfGFP reporter fluorescence read?
A: The sfGFP reporter fluorescence was 0.0396 ± 0.00089.

Q: With DTKCMDAP G124A as the variant, how does the sfGFP reporter fluorescence read?
A: The sfGFP reporter fluorescence was 0.212 ± 0.015.

Q: For KNMCMDDP P61N, which sfGFP reporter fluorescence is on record?
A: Its sfGFP reporter fluorescence is 1.45 ± 0.17.

Q: For TIVLGDDR H106A, which sfGFP reporter fluorescence is on record?
A: The sfGFP reporter fluorescence was 0.0524 ± 0.0029.

Q: With DTKLGSPL as the variant, how does the sfGFP reporter fluorescence read?
A: The sfGFP reporter fluorescence was 0.0411 ± 0.0014.

Q: Which sfGFP reporter fluorescence does the source give for DNKCGAAY here?
A: The sfGFP reporter fluorescence was 1.05 ± 0.072.

Q: With DNKCIDAK M84A G124A as the variant, how does the sfGFP reporter fluorescence read?
A: The sfGFP reporter fluorescence was 0.548 ± 0.043.

Q: With KNVCMDDP E81A as the variant, how does the sfGFP reporter fluorescence read?
A: The sfGFP reporter fluorescence was 2.21 ± 0.21.

Q: With DNKLGDDP as the variant, how does the sfGFP reporter fluorescence read?
A: The sfGFP reporter fluorescence was 0.0412 ± 0.002.

Q: With DSKLGMAP V108L as the variant, how does the sfGFP reporter fluorescence read?
A: Its sfGFP reporter fluorescence is 0.043.

Q: For DTKLGAPW V108L, which sfGFP reporter fluorescence is on record?
A: The sfGFP reporter fluorescence was 0.0408 ± 0.002.

Q: Which sfGFP reporter fluorescence does the source give for DSKLGAPW here?
A: The sfGFP reporter fluorescence was 0.043 ± 0.0014.

Q: With DNKCGADY G124A as the variant, how does the sfGFP reporter fluorescence read?
A: The sfGFP reporter fluorescence was 0.267 ± 0.013.

Q: With DVVLGDDR H106A as the variant, how does the sfGFP reporter fluorescence read?
A: Its sfGFP reporter fluorescence is 0.043 ± 0.0021.

Q: With DTKLGDRR E109L as the variant, how does the sfGFP reporter fluorescence read?
A: The sfGFP reporter fluorescence was 0.0416 ± 0.0019.

Q: With KFVLGDDP I90A H106A as the variant, how does the sfGFP reporter fluorescence read?
A: Its sfGFP reporter fluorescence is 0.0469 ± 0.002.

Q: Which sfGFP reporter fluorescence does the source give for DNKCGADY M60L here?
A: Its sfGFP reporter fluorescence is 1.36 ± 0.092.

Q: For DTKCIDAP I125L, which sfGFP reporter fluorescence is on record?
A: Its sfGFP reporter fluorescence is 0.059 ± 0.0049.

Variants of: B1
Experiment: sfGFP reporter fluorescence (15 h) (µM FITC); higher = stronger transcriptional activation
Settings: library round: Round 3; ligand: 1 µM Pb
Method: as §1

Q: Which sfGFP reporter fluorescence does the source give for DTKLGCDL Q121A here?
A: Its sfGFP reporter fluorescence is 0.101 ± 0.0031.

Q: Which sfGFP reporter fluorescence does the source give for KFVLGDDT H106A here?
A: Its sfGFP reporter fluorescence is 0.549 ± 0.023.

Q: For LILCGAAC V16C H54C C55P H106A, which sfGFP reporter fluorescence is on record?
A: The sfGFP reporter fluorescence was 0.0421 ± 0.0021.

Q: Which sfGFP reporter fluorescence does the source give for KNKCGADP M60L P61N here?
A: The sfGFP reporter fluorescence was 2.95 ± 0.29.

Q: For DTKLGSDP V108L H142A, which sfGFP reporter fluorescence is on record?
A: Its sfGFP reporter fluorescence is 0.076 ± 0.0048.

Q: For DTKCMDAP G124A, which sfGFP reporter fluorescence is on record?
A: The sfGFP reporter fluorescence was 1.58 ± 0.084.

Q: For KNMCMDDP P61N, which sfGFP reporter fluorescence is on record?
A: The sfGFP reporter fluorescence was 2.43 ± 0.21.

Q: For TIVLGDDR H106A, which sfGFP reporter fluorescence is on record?
A: Its sfGFP reporter fluorescence is 0.448 ± 0.023.

Q: With DTKLGSPL as the variant, how does the sfGFP reporter fluorescence read?
A: Its sfGFP reporter fluorescence is 0.1583 ± 0.0015.

Q: With DNKCGAAY as the variant, how does the sfGFP reporter fluorescence read?
A: The sfGFP reporter fluorescence was 2.12 ± 0.14.

Q: With DNKCIDAK M84A G124A as the variant, how does the sfGFP reporter fluorescence read?
A: Its sfGFP reporter fluorescence is 2.01 ± 0.13.

Q: Which sfGFP reporter fluorescence does the source give for KNVCMDDP E81A here?
A: Its sfGFP reporter fluorescence is 3.01 ± 0.4.

Q: With DNKLGDDP as the variant, how does the sfGFP reporter fluorescence read?
A: The sfGFP reporter fluorescence was 0.0516 ± 0.0024.

Q: For DSKLGMAP V108L, which sfGFP reporter fluorescence is on record?
A: Its sfGFP reporter fluorescence is 0.0646 ± 0.004.

Q: For DTKLGAPW V108L, which sfGFP reporter fluorescence is on record?
A: The sfGFP reporter fluorescence was 0.146 ± 0.0032.

Q: With DSKLGAPW as the variant, how does the sfGFP reporter fluorescence read?
A: The sfGFP reporter fluorescence was 0.138 ± 0.012.

Q: With DNKCGADY G124A as the variant, how does the sfGFP reporter fluorescence read?
A: Its sfGFP reporter fluorescence is 1.31 ± 0.084.

Q: With DVVLGDDR H106A as the variant, how does the sfGFP reporter fluorescence read?
A: The sfGFP reporter fluorescence was 0.126 ± 0.007.

Q: Which sfGFP reporter fluorescence does the source give for DTKLGDRR E109L here?
A: Its sfGFP reporter fluorescence is 0.103 ± 0.005.

Q: Which sfGFP reporter fluorescence does the source give for KFVLGDDP I90A H106A here?
A: Its sfGFP reporter fluorescence is 0.441 ± 0.013.

Q: For DNKCGADY M60L, which sfGFP reporter fluorescence is on record?
A: Its sfGFP reporter fluorescence is 1.92 ± 0.1.

Q: With DTKCIDAP I125L as the variant, how does the sfGFP reporter fluorescence read?
A: The sfGFP reporter fluorescence was 0.0617 ± 0.0061.

Same assay, conditions: library round: Round 3; ligand: 30 µM Zn

Q: For DTKLGCDL Q121A, which sfGFP reporter fluorescence is on record?
A: The sfGFP reporter fluorescence was 0.103 ± 0.0093.

Q: Which sfGFP reporter fluorescence does the source give for KFVLGDDT H106A here?
A: The sfGFP reporter fluorescence was 0.095 ± 0.0055.

Q: Which sfGFP reporter fluorescence does the source give for LILCGAAC V16C H54C C55P H106A here?
A: The sfGFP reporter fluorescence was 0.0492 ± 0.0021.

Q: With KNKCGADP M60L P61N as the variant, how does the sfGFP reporter fluorescence read?
A: Its sfGFP reporter fluorescence is 2.51 ± 0.32.

Q: Which sfGFP reporter fluorescence does the source give for DTKLGSDP V108L H142A here?
A: Its sfGFP reporter fluorescence is 0.278 ± 0.029.

Q: With DTKCMDAP G124A as the variant, how does the sfGFP reporter fluorescence read?
A: Its sfGFP reporter fluorescence is 2.41 ± 0.38.

Q: For KNMCMDDP P61N, which sfGFP reporter fluorescence is on record?
A: Its sfGFP reporter fluorescence is 2.66 ± 0.22.

Q: For TIVLGDDR H106A, which sfGFP reporter fluorescence is on record?
A: Its sfGFP reporter fluorescence is 0.0673 ± 0.0027.

Q: Which sfGFP reporter fluorescence does the source give for DTKLGSPL here?
A: The sfGFP reporter fluorescence was 0.196 ± 0.019.

Q: Which sfGFP reporter fluorescence does the source give for DNKCGAAY here?
A: Its sfGFP reporter fluorescence is 2.26 ± 0.041.

Q: With DNKCIDAK M84A G124A as the variant, how does the sfGFP reporter fluorescence read?
A: Its sfGFP reporter fluorescence is 2.75 ± 0.23.

Q: With KNVCMDDP E81A as the variant, how does the sfGFP reporter fluorescence read?
A: The sfGFP reporter fluorescence was 2.71 ± 0.34.

Q: Which sfGFP reporter fluorescence does the source give for DNKLGDDP here?
A: Its sfGFP reporter fluorescence is 0.416 ± 0.055.

Q: With DSKLGMAP V108L as the variant, how does the sfGFP reporter fluorescence read?
A: Its sfGFP reporter fluorescence is 0.354 ± 0.015.

Q: For DTKLGAPW V108L, which sfGFP reporter fluorescence is on record?
A: The sfGFP reporter fluorescence was 0.1781 ± 0.0015.

Q: Which sfGFP reporter fluorescence does the source give for DSKLGAPW here?
A: Its sfGFP reporter fluorescence is 0.227 ± 0.025.

Q: Which sfGFP reporter fluorescence does the source give for DNKCGADY G124A here?
A: The sfGFP reporter fluorescence was 2.05 ± 0.041.

Q: With DVVLGDDR H106A as the variant, how does the sfGFP reporter fluorescence read?
A: Its sfGFP reporter fluorescence is 0.0489 ± 0.0029.

Q: For DTKLGDRR E109L, which sfGFP reporter fluorescence is on record?
A: The sfGFP reporter fluorescence was 0.224 ± 0.0067.

Q: Which sfGFP reporter fluorescence does the source give for KFVLGDDP I90A H106A here?
A: Its sfGFP reporter fluorescence is 0.0549 ± 0.0013.

Q: With DNKCGADY M60L as the variant, how does the sfGFP reporter fluorescence read?
A: Its sfGFP reporter fluorescence is 2.58 ± 0.11.

Q: Which sfGFP reporter fluorescence does the source give for DTKCIDAP I125L here?
A: The sfGFP reporter fluorescence was 0.614 ± 0.022.
